Key:
[1] = system: MCP-1 promoter; assay: NHR-promoter luciferase screen, MCP-1 promoter; format: cell-based; conditions: for Normalized Luc. act., normalized to control / Luc. act., normalized to lacZ: MCP-1 promoter reporter; for Normalized Luc. act., normalized to control: HR without or with its ligand, relative to control; for Luc. act., normalized to lacZ: hormone receptor (HR) without or with its ligand; for mMCP-1 promoter reporter activity: transcription factor +/- ligand, control = 1.00
Method: (§1) The use, feasibility, and reproducibility of the functional NHR-promoter screen in a 48-well format have been tested validated. Briefly, there were co-expressed 50 ng of each NHR/NHR homodimer or NHR/RXR heterodimer with 100 ng promoter/luciferase construct and 50 ng of LacZ (as a control for transfection efficiency) in CV-1 cells using Fugene HD (Roche) as a transfection reagent (alternatively or additionally, a CMV-YFP construct can be used as a transfection control). Each of the nuclear hormone receptors that were used in these experiments was cloned into a pcDNA3.1 vector and comprised a C-terminally linked V5H6 tag. Twenty-four hours after transfection, appropriate ligands were added, where applicable, (see Table 5 for various ligands and concentrations and after 48 hrs, samples were assayed for luciferase and LacZ activity. To measure for luciferase activity 15 ul of sample was added to 30 ul of luciferase buffer (20 mM tricine, 1.07 mM MgCarbonate, 2.67 mM MgSulfate, 0.1 mM Naz-EDTA, 5 mM DTT, 5 mM ATP, 0.15 mg/ml CoA, 0.5 mM Luciferin), mixed briefly, and run in a Perkin Elmer Victor 5 luminometer. Thus, the functional NHR-promoter screen was used to observe the transcriptional activity of 29 promoters from various physiological pathways including inflammation, lipid and sugar metabolism, cholesterol transport, xenobiotic metabolism, and circadian rhythm.
(§2) The promoters that facilitate transcription of the indicated gene products that were tested using the protocols described herein are listed in the first row of the table. The nuclear hormone receptors and, where applicable, ligands that were assayed for their transcriptional effects on the promoters are listed in the first column of the table. The data represent the luciferase activity of each sample normalized to both the lacZ activity of that sample and to a control, e.g., no NHR or ligand, as customary in the art. As described previously, these normalizations allow the transcriptional activity of each reporter cell to be compared to other samples.
(§3) Tables 7-40 show the transcriptional effects of the hormone receptors, and, where applicable, ligands (orphan receptors are screened without ligand), on each individual promoter. […] The control data of each table are shown in their last rows.

[2] = system: mUCP1 promoter; assay: NHR-promoter luciferase screen, mUCP1 promoter; format: cell-based, mouse; conditions: for Luc. act., normalized to lacZ / Normalized Luc. act., normalized to control: mUCP1 promoter reporter, co-transfected HR, with or without its ligand; for Normalized Luc. act., normalized to control: relative to control; for luciferase activity normalized to lacZ activity and to a control, mUCP!: mUCP! promoter-luciferase, CV-1 cells, NHR +/- ligand, control = 1.00
Method: as §1, §2, §3

[3] = system: hCAR promoter; assay: NHR-promoter luciferase screen, hCAR promoter; format: cell-based, human; conditions: for luciferase activity normalized to lacZ activity and to a control, hCAR: hCAR promoter-luciferase, CV-1 cells, NHR +/- ligand, control = 1.00; for Luc. act., normalized to lacZ / Normalized Luc. act., normalized to control: hCAR promoter, HR/ligand component
Method: as §1, §2, §3

[4] = system: hPOMC promoter; assay: NHR-promoter luciferase screen, hPOMC promoter; format: cell-based, human; conditions: for Luc. act., normalized to lacZ / Normalized Luc. act., normalized to control: hPOMC promoter, HR/ligand component; for hPOMC promoter reporter activity: transcription factor +/- ligand, control = 1.00
Method: as §1, §2, §3

[5] = system: mPgc1b promoter; assay: NHR-promoter luciferase screen, mPgc1b promoter; format: cell-based, mouse; conditions: for Luc. act., normalized to lacZ / Normalized Luc. act., normalized to control: PGC1b promoter reporter, co-transfected HR, without or with its ligand; for Normalized Luc. act., normalized to control: relative to control; for luciferase activity normalized to lacZ activity and to a control, mPgc1b: mPgc1b promoter-luciferase, CV-1 cells, NHR +/- ligand, control = 1.00
Method: Briefly, there were co-expressed 50 ng of each NHR/NHR homodimer or NHR/RXR heterodimer with 100 ng promoter/luciferase construct and 50 ng of LacZ (as a control for transfection efficiency) in CV-1 cells using Fugene HD (Roche) as a transfection reagent (alternatively or additionally, a CMV-YFP construct can be used as a transfection control). Each of the nuclear hormone receptors that were used in these experiments was cloned into a pcDNA3.1 vector and comprised a C-terminally linked V5H6 tag.
as §2, §3

[6] = system: mUCP3 promoter; assay: NHR-promoter luciferase screen, mUCP3 promoter; format: cell-based, mouse; conditions: for Normalized Luc. act., normalized to control / Luc. act., normalized to lacZ: mUCP3 promoter reporter; for Normalized Luc. act., normalized to control: HR without or with its ligand, relative to control; for Luc. act., normalized to lacZ: hormone receptor (HR) without or with its ligand; for mUCP3 promoter reporter activity: transcription factor +/- ligand, control = 1.00
Method: as §1, §2, §3

Molecule	Normalized Luc. act., normalized to control [1]	Luc. act., normalized to lacZ [1]	mMCP-1 promoter reporter activity [1]	Luc. act., normalized to lacZ [2]	Normalized Luc. act., normalized to control [2]	luciferase activity normalized to lacZ activity and to a control, mUCP! [2]	luciferase activity normalized to lacZ activity and to a control, hCAR [3]	Luc. act., normalized to lacZ [3]	Normalized Luc. act., normalized to control [3]	Luc. act., normalized to lacZ [4]	Normalized Luc. act., normalized to control [4]	hPOMC promoter reporter activity [4]	Luc. act., normalized to lacZ [5]	Normalized Luc. act., normalized to control [5]	luciferase activity normalized to lacZ activity and to a control, mPgc1b [5]	Normalized Luc. act., normalized to control [6]	Luc. act., normalized to lacZ [6]	mUCP3 promoter reporter activity [6]
LXRa: Liver X Receptor α (NR1H3), cDNA driver	0.9	97.3	0.91	3.1	0.7	0.69	1.87	58.9	1.9	6.8	1.6	1.58	8.40	0.7	0.71	1.6	1.1	1.58
RXRa: Retinoic X Receptor α (NR2B1), cDNA driver	1.6	170.8	1.60	2.9	0.7	0.66	0.78	24.7	0.8	2.6	0.6	0.61	8.6	0.7	0.72	1.3	0.9	1.27
HNF4a: Hepatocyte Nuclear Factor α (NR2A1), cDNA driver (protein, UniProt P41235 1-474, looked up) Hepatocyte nuclear factor …: MRLSKTLVDMDMADYSAALDPAYTTLEFENVQVLTMGNDTSPSEGTNLNAPNSLGVSALCAICGDRATGKHYGASSCDGCKGFFRRSVRKNHMYSCRFSRQCVVDKDKRNQCRYCRLKKCFRAGMKKEAVQNERDRISTRRSSYEDSSLPSINALLQAEVLSRQITSPVSGINGDIRAKKIASIADVCESMKEQLLVLVEWAKYIPAFCELPLDDQVALLRAHAGEHLLLGATKRSMVFKDVLLLGNDYIVPRHCPELAEMSRVSIRILDELVLPFQELQIDDNEYAYLKAIIFFDPDAKGLSDPGKIKRLRSQVQVSLEDYINDRQYDSRGRFGELLLLLPTLQSITWQMIEQIQFIKLFGMAKIDNLLQEMLLGGSPSDAPHAHHPLHPHLMQEHMGTNVIVANTMPTHLSNGQMCEWPRPRGQAATPETPQPSPPGGSGSEPYKLLPGAVATIVKPLSAIPQPTITKQEVI	0.7	78.0	0.73	2.8	0.6	0.63	15.62	493.6	15.6	3.5	0.8	0.81	6.4	0.5	0.54	1.1	0.7	1.06
RORa: RAR-related Orphan Receptor α (NR1F1), cDNA driver (protein, UniProt P35398 1-523, looked up) Nuclear receptor ROR-alpha: MESAPAAPDPAASEPGSSGADAAAGSRETPLNQESARKSEPPAPVRRQSYSSTSRGISVTKKTHTSQIEIIPCKICGDKSSGIHYGVITCEGCKGFFRRSQQSNATYSCPRQKNCLIDRTSRNRCQHCRLQKCLAVGMSRDAVKFGRMSKKQRDSLYAEVQKHRMQQQQRDHQQQPGEAEPLTPTYNISANGLTELHDDLSNYIDGHTPEGSKADSAVSSFYLDIQPSPDQSGLDINGIKPEPICDYTPASGFFPYCSFTNGETSPTVSMAELEHLAQNISKSHLETCQYLREELQQITWQTFLQEEIENYQNKQREVMWQLCAIKITEAIQYVVEFAKRIDGFMELCQNDQIVLLKAGSLEVVFIRMCRAFDSQNNTVYFDGKYASPDVFKSLGCEDFISFVFEFGKSLCSMHLTEDEIALFSAFVLMSADRSWLQEKVKIEKLQQKIQLALQHVLQKNHREDGILTKLICKVSTLRALCGRHTEKLMAFKAIYPDIVRLHFPPLYKELFTSEFEPAMQIDG	1.4	150.7	1.41	1.7	0.4	0.38	0.58	18.2	0.6	1.6	0.4	0.38	10.8	0.9	0.91	2.6	1.7	2.56
LXRb: Liver X Receptor β (NR1H2), cDNA driver (protein, UniProt P55055 1-460, looked up) Oxysterols receptor LXR-beta: MSSPTTSSLDTPLPGNGPPQPGAPSSSPTVKEEGPEPWPGGPDPDVPGTDEASSACSTDWVIPDPEEEPERKRKKGPAPKMLGHELCRVCGDKASGFHYNVLSCEGCKGFFRRSVVRGGARRYACRGGGTCQMDAFMRRKCQQCRLRKCKEAGMREQCVLSEEQIRKKKIRKQQQESQSQSQSPVGPQGSSSSASGPGASPGGSEAGSQGSGEGEGVQLTAAQELMIQQLVAAQLQCNKRSFSDQPKVTPWPLGADPQSRDARQQRFAHFTELAIISVQEIVDFAKQVPGFLQLGREDQIALLKASTIEIMLLETARRYNHETECITFLKDFTYSKDDFHRAGLQVEFINPIFEFSRAMRRLGLDDAEYALLIAINIFSADRPNVQEPGRVEALQQPYVEALLSYTRIKRPQDQLRFPRMLMKLVSLRTLSSVHSEQVFALRLQDKKLPPLLSEIWDVHE	1.9	198.9	1.86	17.2	3.9	3.88	1.44	45.5	1.4	6.3	1.5	1.46	4.69	0.4	0.40	1.7	1.2	1.73
